For 2 substances, stoichiometry N results are on record in article PMC9428403.

Assay [1] addresses PKM2 (endogenous, RAW264.7 macrophages) (mouse (endogenous in RAW264.7)) (UniProt P52480). As to the kind of experiment: cross-linking; RAW264.7 cells pre-treated 1 h with Shikonin (0.5, 1, 2 μM) or not, challenged with LPS (250 ng/ml) + IFN-γ (100 ng/ml) for 24 h; cells cross-linked with disuccinimidyl suberate (500 nM as printed) 30 min at room temperature, quenched with Tris-HCl pH 7.5; lysates analysed by western blot for PKM2.

For assay [2], the target named is mouse PKM2 (AA 1-531), recombinant (mouse) (UniProt P52480). Nature of the assay: SEC; Superdex 200 increase 10/300 GL, 150 mM NaCl, 20 mM Tris-HCl; purified PKM2 incubated with or without Shikonin; dimer and tetramer mixture eluted at 13 ml.

Values joined by “and” are separate entries in the source; they are usually repeats but may differ in a detail not shown here. Equal entries are not always repeated.

Chain of mouse PKM2 (AA 1-531), recombinant, P52480 1-531 (enzyme; other documents disagree on this pair) (P52480 whole entry, the tested form may be a part): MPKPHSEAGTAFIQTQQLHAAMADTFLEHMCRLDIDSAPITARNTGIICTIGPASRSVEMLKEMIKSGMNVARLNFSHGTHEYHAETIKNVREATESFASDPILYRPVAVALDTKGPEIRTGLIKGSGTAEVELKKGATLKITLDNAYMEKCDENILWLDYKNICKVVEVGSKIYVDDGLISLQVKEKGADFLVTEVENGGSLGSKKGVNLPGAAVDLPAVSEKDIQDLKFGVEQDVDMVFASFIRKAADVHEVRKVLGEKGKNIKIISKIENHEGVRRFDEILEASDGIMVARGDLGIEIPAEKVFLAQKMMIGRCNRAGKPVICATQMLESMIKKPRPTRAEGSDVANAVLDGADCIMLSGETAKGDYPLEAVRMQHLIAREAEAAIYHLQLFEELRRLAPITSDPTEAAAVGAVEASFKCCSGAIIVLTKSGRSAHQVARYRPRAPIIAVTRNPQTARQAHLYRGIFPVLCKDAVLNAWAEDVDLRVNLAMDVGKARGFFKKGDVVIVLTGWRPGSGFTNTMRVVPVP
Chain of PKM2 (endogenous, RAW264.7 macrophages), P52480 1-531 (enzyme; other documents disagree on this pair) (P52480 whole entry): as the sequence (P52480 whole entry, the tested form may be a part) above

Consider “PKM2 (endogenous, RAW264.7 macrophages), P52480 1-531 (enzyme; other documents disagree on this pair)”, for which, in assay [1], the stoichiometry N is 4 and 2.
With “mouse PKM2 (AA 1-531), recombinant, P52480 1-531 (enzyme; other documents disagree on this pair)”, the stoichiometry N in assay [2] was 2 and 4.
